Experimental data published in patent US20250042968A1 (UNIVERSITY OF MIAMI, published 2025).

Molecular target: T1, EphA2 (UniProt P29317 25-534, limits assumed)
T1 construct: also called EphA2 receptor
Test: biolayer interferometry (ForteBio Octet)

T1 sequence (P29317 25-534 limits assumed): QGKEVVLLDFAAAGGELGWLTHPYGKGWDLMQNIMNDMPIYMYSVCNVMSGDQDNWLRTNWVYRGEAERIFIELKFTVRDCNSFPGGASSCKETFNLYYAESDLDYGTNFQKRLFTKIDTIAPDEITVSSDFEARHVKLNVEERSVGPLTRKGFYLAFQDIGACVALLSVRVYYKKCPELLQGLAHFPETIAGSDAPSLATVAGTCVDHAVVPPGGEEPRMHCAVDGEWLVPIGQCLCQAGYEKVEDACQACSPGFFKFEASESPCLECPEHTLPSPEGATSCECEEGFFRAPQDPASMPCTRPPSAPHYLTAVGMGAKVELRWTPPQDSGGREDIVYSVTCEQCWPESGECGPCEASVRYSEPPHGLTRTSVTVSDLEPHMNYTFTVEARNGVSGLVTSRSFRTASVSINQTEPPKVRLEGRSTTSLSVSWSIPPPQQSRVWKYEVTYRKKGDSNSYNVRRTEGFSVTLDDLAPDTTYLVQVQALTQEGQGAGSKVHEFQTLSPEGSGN

B1: SNEW (peptide)
peptide: SNEWIQPRLPQH
notes: Known EphB2 targeting peptide, tested alongside the xEFN peptides as a comparator
binding result: no binding
